{"source": "paper PMC7819943", "about": "“Rice protein-binding microarrays: a tool to detect cis-acting elements near promoter regions in rice”", "binders": {"B1": {"name": "Os01g0393100_8 (ONAC026 promoter probe) (dsDNA)", "DNA 1": "CTGGAATCTGAGGGGAACCACGTCACGTACACAAGTATAT", "DNA 2": "ATATACTTGTGTACGTGACGTGGTTCCCCTCAGATTCCAG"}, "B2": {"name": "Os05g0415400_39 (ONAC024 promoter probe) (dsDNA)", "DNA 1": "GATAATGAGTCAGTCCTCTTGTCGATACTCCGCCGGTATG", "DNA 2": "CATACCGGCGGAGTATCGACAAGAGGACTGACTCATTATC"}, "B3": {"name": "Os01g0311500_18 (dsDNA)", "DNA 1": "TTGACGCCGTTGACTTTTTAGTACATGTTTGACCATTCGT", "DNA 2": "ACGAATGGTCAAACATGTACTAAAAAGTCAACGGCGTCAA"}}, "key": {"OsSMF1": {"molecular_target": "T1, OsSMF1 (Oryza sativa, UniProt Q6ZLB0 1-436)", "T1 sequence": "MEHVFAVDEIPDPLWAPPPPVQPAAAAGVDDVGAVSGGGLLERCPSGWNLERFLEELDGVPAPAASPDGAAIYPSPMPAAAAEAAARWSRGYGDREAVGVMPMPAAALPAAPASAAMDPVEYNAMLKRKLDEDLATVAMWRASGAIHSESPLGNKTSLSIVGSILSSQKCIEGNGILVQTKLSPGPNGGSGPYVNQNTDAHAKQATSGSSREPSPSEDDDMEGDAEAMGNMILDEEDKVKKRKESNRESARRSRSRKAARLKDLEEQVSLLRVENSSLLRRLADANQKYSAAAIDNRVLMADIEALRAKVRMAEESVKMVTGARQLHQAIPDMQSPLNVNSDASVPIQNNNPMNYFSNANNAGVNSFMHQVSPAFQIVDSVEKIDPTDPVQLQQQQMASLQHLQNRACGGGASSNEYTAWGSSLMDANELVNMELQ", "assay": "EMSA; EMSA: 5 ug protein, 40 fmol FAM-dsDNA, 1 ug poly(dI-dC), 1X binding buffer (Pierce), 2.5% glycerol, 0.05% NP-40, 20 ul, 1 h room temperature; 6% acrylamide gel", "conditions": "protein: recombinant; tags: N-terminal polyhistidine and DsRed monomer fusion (pET32a); chain copies: 2; label: 5' FAM; blunt"}, "OsWRKY34": {"molecular_target": "OsWRKY34 (Oryza sativa, UniProt Q0JBA9 1-250)", "sequence (Q0JBA9 entry or part of it)": "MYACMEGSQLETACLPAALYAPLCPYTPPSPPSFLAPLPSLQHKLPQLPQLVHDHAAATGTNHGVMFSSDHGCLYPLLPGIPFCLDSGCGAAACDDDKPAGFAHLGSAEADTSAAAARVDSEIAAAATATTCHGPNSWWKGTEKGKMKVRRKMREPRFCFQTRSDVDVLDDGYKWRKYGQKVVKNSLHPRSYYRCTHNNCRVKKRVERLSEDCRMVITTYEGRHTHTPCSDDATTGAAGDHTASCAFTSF", "assay": "EMSA; EMSA: 5 ug protein, 40 fmol FAM-dsDNA, 1 ug poly(dI-dC), 1X binding buffer (Pierce), 2.5% glycerol, 0.05% NP-40, 20 ul, 1 h room temperature; 6% acrylamide gel", "conditions": "protein: recombinant; tags: N-terminal polyhistidine and DsRed monomer fusion (pET32a); label: 5' FAM; blunt"}}}
{"binder": "B1", "values": [{"measurement": "binding result", "setting": "OsSMF1", "value": "binds"}]}
{"binder": "B2", "values": [{"measurement": "binding result", "setting": "OsSMF1", "value": "binds"}]}
{"binder": "B3", "values": [{"measurement": "binding result", "setting": "OsWRKY34", "value": "binds"}]}
